Assay results from the RNAGym collection of RNA variant scans (doi:10.1093/nar/gkz1192).

B1: CPEB3 Ribozyme (parent)
chain: UAACAGGGGGCCACAGCAGAAGCGUUCACGUCGCAGCCCCUGUCAGAUUCUGGUGAAUCUGCGAAUUCUGCUGUAUAUCUC

Variants of: B1
Assay: self-cleavage, relative activity (ratio to wild type); higher = more cleavage; in vitro, sequencing
Method in brief: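 Libraries of CPEB3 self-cleaving ribozyme mutants came from rounds of error-prone PCR and carried barcodes, which DNA sequencing matched to variants. In vitro transcription used T7 RNA polymerase at 37°C for 5 hours, with a further 15 min in DNase I before EDTA stopped the reaction; the ribozymes cleaved during both steps. The RNA was reverse transcribed with template switching and sequenced on Illumina. Relative activity is the cleaved/total read fraction of a variant divided by that of the unmutated ribozyme, averaged over three batches with at least 5 reads.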
For UAGCAGGGGGCCGCAGCAGAAGCGUUCACGUCGCAGCCCCUGUCAGAUUCUGGUGAAUCUGCGAAUUCUGCUGUAUAUCUC [A3G A13G], the self-cleavage was 0.95. For UAGCAGGGGGCCCCAGCAGAAGCGUUCACGUCGCAGCCCCUGUCAGAUUCUGGUGAAUCUGCGAAUUCUGCUGUAUAUCUC [A3G A13C], the self-cleavage was 1.02. UAGCAGGGGGCCUCAGCAGAAGCGUUCACGUCGCAGCCCCUGUCAGAUUCUGGUGAAUCUGCGAAUUCUGCUGUAUAUCUC [A3G A13U] gave a self-cleavage of 1.02. UAGCAGGGGGCCACAGCAGAAGCGUUCACGUCGCAGCCCCUGUCAGAUUCUGGUGAGUCUGCGAAUUCUGCUGUAUAUCUC [A3G A57G] showed a self-cleavage of 0.86. UAGCAGGGGGCCACAGCAGAAGCGUUCACGUCGCAGCCCCUGUCAGAUUCUGGUGAUUCUGCGAAUUCUGCUGUAUAUCUC [A3G A57U] showed a self-cleavage of 0.69. In the case of UAGCAGGGGGCCACAGCAGAAGCGUUCACGUCGCAGCCCCUGUCAGAUUCUGGUGACUCUGCGAAUUCUGCUGUAUAUCUC [A3G A57C], the self-cleavage is reported as 0.49. In the case of UAGCAGGGGGCCACAGCAGAAGCGUUCACGUCGCAGCCCCUGUCUGAUUCUGGUGAAUCUGCGAAUUCUGCUGUAUAUCUC [A3G A45U], the self-cleavage is reported as 0.4. UAGCAGGGGGCCACAGCAGAAGCGUUCACGUCGCAGCCCCUGUCGGAUUCUGGUGAAUCUGCGAAUUCUGCUGUAUAUCUC [A3G A45G] gave a self-cleavage of 0.78. In the case of UAGCAGGGGGCCACUGCAGAAGCGUUCACGUCGCAGCCCCUGUCAGAUUCUGGUGAAUCUGCGAAUUCUGCUGUAUAUCUC [A3G A15U], the self-cleavage is reported as 0.78. For UAGCAGGGGGCCACGGCAGAAGCGUUCACGUCGCAGCCCCUGUCAGAUUCUGGUGAAUCUGCGAAUUCUGCUGUAUAUCUC [A3G A15G], the self-cleavage was 0.84. Variant UAGCAGGGGGCCACCGCAGAAGCGUUCACGUCGCAGCCCCUGUCAGAUUCUGGUGAAUCUGCGAAUUCUGCUGUAUAUCUC [A3G A15C] has a self-cleavage of 0.95. With UAGCAGGGGGCCACAGCAGUAGCGUUCACGUCGCAGCCCCUGUCAGAUUCUGGUGAAUCUGCGAAUUCUGCUGUAUAUCUC [A3G A20U] the self-cleavage was 0.41. UAGCAGGGGGCCACAGCAGCAGCGUUCACGUCGCAGCCCCUGUCAGAUUCUGGUGAAUCUGCGAAUUCUGCUGUAUAUCUC [A3G A20C] showed a self-cleavage of 0.75. Work on UAGCAGGGGGCCACAGCAGGAGCGUUCACGUCGCAGCCCCUGUCAGAUUCUGGUGAAUCUGCGAAUUCUGCUGUAUAUCUC [A3G A20G] yielded a self-cleavage of 0.86. UAGCAGGGGGCCACAGCAGAGGCGUUCACGUCGCAGCCCCUGUCAGAUUCUGGUGAAUCUGCGAAUUCUGCUGUAUAUCUC [A3G A21G] showed a self-cleavage of 0.73. In the case of UAGCAGGGGGCCACAGCAGAUGCGUUCACGUCGCAGCCCCUGUCAGAUUCUGGUGAAUCUGCGAAUUCUGCUGUAUAUCUC [A3G A21U], the self-cleavage is reported as 0.49. UAGCAGGGGGCCACAGCAGAAGCGUUCACGUCGCAGCCCCUGUCAGAUUCUGGUGAAUCUGCGUAUUCUGCUGUAUAUCUC [A3G A64U] showed a self-cleavage of 0.45. In the case of UAGCAGGGGGCCACAGCAGAAGCGUUCACGUCGCAGCCCCUGUCAGAUUCUGGUGAAUCUGCGGAUUCUGCUGUAUAUCUC [A3G A64G], the self-cleavage is reported as 0.92. UAGCAGGGGGCCACAGCAGAAGCGUUCACGUCGCAGCCCCUGUCAGAUUCUGGUGUAUCUGCGAAUUCUGCUGUAUAUCUC [A3G A56U] gave a self-cleavage of 0.64. Variant UAGCAGGGGGCCACAGCAGAAGCGUUCACGUCGCAGCCCCUGUCAGAUUCUGGUGCAUCUGCGAAUUCUGCUGUAUAUCUC [A3G A56C] has a self-cleavage of 0.8. For UAGCAGGGGGCCACAGCAGAAGCGUUCACGUCGCAGCCCCUGUCAGAUUCUGGUGGAUCUGCGAAUUCUGCUGUAUAUCUC [A3G A56G], the self-cleavage was 0.77. UAGCAGGGGGCCACAGCAGAAGCGUUCACGUCGCAGCCCCUGUCAGGUUCUGGUGAAUCUGCGAAUUCUGCUGUAUAUCUC [A3G A47G] showed a self-cleavage of 0.92. With UAGCAGGGGGCCACAGCAGAAGCGUUCACGUCGCAGCCCCUGUCAGUUUCUGGUGAAUCUGCGAAUUCUGCUGUAUAUCUC [A3G A47U] the self-cleavage was 0.48. For UAGCAGGGGGCCACAGCAGAAGCGUUCUCGUCGCAGCCCCUGUCAGAUUCUGGUGAAUCUGCGAAUUCUGCUGUAUAUCUC [A3G A28U], the self-cleavage was 0.89. UAGCAGGGGGCCACAGCAGAAGCGUUCCCGUCGCAGCCCCUGUCAGAUUCUGGUGAAUCUGCGAAUUCUGCUGUAUAUCUC [A3G A28C] showed a self-cleavage of 0.73. UAGCAGGGGGCCACAGCAGAAGCGUUCGCGUCGCAGCCCCUGUCAGAUUCUGGUGAAUCUGCGAAUUCUGCUGUAUAUCUC [A3G A28G] gave a self-cleavage of 0.72. UAGCAGGGGGCCACAGCUGAAGCGUUCACGUCGCAGCCCCUGUCAGAUUCUGGUGAAUCUGCGAAUUCUGCUGUAUAUCUC [A3G A18U] showed a self-cleavage of 0.44. Variant UAGCAGGGGGCCACAGCCGAAGCGUUCACGUCGCAGCCCCUGUCAGAUUCUGGUGAAUCUGCGAAUUCUGCUGUAUAUCUC [A3G A18C] has a self-cleavage of 0.46. For UAGCAGGGGGCCACAGCGGAAGCGUUCACGUCGCAGCCCCUGUCAGAUUCUGGUGAAUCUGCGAAUUCUGCUGUAUAUCUC [A3G A18G], the self-cleavage was 0.73. UAGCAGGGGGCCACAGCAGAAGCGUUCACGUCGCUGCCCCUGUCAGAUUCUGGUGAAUCUGCGAAUUCUGCUGUAUAUCUC [A3G A35U] showed a self-cleavage of 0.64. Variant UAGCAGGGGGCCACAGCAGAAGCGUUCACGUCGCGGCCCCUGUCAGAUUCUGGUGAAUCUGCGAAUUCUGCUGUAUAUCUC [A3G A35G] has a self-cleavage of 1.21. For UAGCAGGGGGCCACAGCAGAAGCGUUCACGUCGCCGCCCCUGUCAGAUUCUGGUGAAUCUGCGAAUUCUGCUGUAUAUCUC [A3G A35C], the self-cleavage was 0.9. UAGCAGGGGGCCACAGCAGAAGCGUUCACGUCGCAGCCCCUGUCAGAUUCUGGUGAAUCUGCGAGUUCUGCUGUAUAUCUC [A3G A65G] gave a self-cleavage of 0.55. Work on UAGCAGGGGGCCACAGCAGAAGCGUUCACGUCGCAGCCCCUGUCAGAUUCUGGUGAAUCUGCGAUUUCUGCUGUAUAUCUC [A3G A65U] yielded a self-cleavage of 0.25.
